Where a chain is given by its changes, count along the chain named.

We go through eight molecules from patent US20070224198A1 (GlaxoSmithKline, published 2007).

For assay [1], the target named is T1, Recombinant human Factor IX (rhFIX, Genetics Institute) (human, UniProt P00740 47-461). The experiment in a line: biosensor (BIAcore). The procedure: (§1) The kinetics of Factor IX binding to SB 249417 was assessed by BIAcore analysis with antibody bound to an immobilized protein A surface. Recombinant human Factor IX (rhFIX, Genetics Institute) at 49 nM was used and measurements performed in the presence of 5 mM Ca²⁺.

The target in assay [2] is T1, Recombinant human Factor IX (rhFIX, …). The experiment in a line: titration calorimetry. Here is the method:
(§2) The interactions between rhFIX and SB 249417 , BC2 and other humanized constructs were characterized by titration microcalorimetry, which measures binding interactions in solution from the intrinsic heat of binding. Nine injections of 106 uM FIX were made into the calorimeter containing 2 uM mAb SB 249417. Binding was detected in the first 4 injections as exothermic heats. At the last 5 injections the mAb binding sites were saturated with FIX and only background heats of mixing were observed. […] Nonlinear least squares analysis of the data yield the binding affinity.

Assay [3] has the same target. The experiment in a line: isothermal titration calorimetry. Here is the method: as §2
For assay [4] the target is unchanged. The experiment in a line: isothermal titration calorimetry, 25 C. Here is the method: as §2
For assay [5] the target is unchanged. The experiment in a line: SPR (BIAcore), calculated from kinetics. Here is the method:
as §1

For assay [6] the target is unchanged. The experiment in a line: titration calorimetry, 37 C, 10 mM CaCl2. The procedure: as §2
Assay [7] has the same target. The experiment in a line: titration microcalorimetry, 106 uM FIX injected into 2 uM mAb. Here is the method: as §2
Assay [8] shares this target. The experiment in a line: titration calorimetry, calculated for 25 C by the van't Hoff equation, 10 mM CaCl2. Here is the method:
as §2

For assay [9] the target is unchanged. The experiment in a line: SPR (BIAcore), antibody bound to immobilized protein A, rhFIX in solution, 5 mM Ca2+. The procedure: as §1
Assay [10] has the same target. The experiment in a line: SPR (BIAcore), antibody bound to immobilized protein A, Factor IX in solution. Here is the method:
as §1

The target in another assay is human Factor IX (human, UniProt P00740 47-461). The experiment in a line: cell-based or functional assay.
Assay [11] concerns the target IX K5A (Factor IX having a lysine to alanine substitution at residue 5) (UniProt P00740 47-461, K5A). The experiment in a line: SPR (BiaCore 2000), BC2 coupled to the chip, 200 nM construct, 5 mM CaCl2. The procedure: (§3) A library of chimeric constructs composed of sequences of Factor IX spliced into the framework of the homologous protein Factor VII was constructed and used to map the epitope for the Factor IX BC2 mAb. See Cheung et al., Thromb. Res. 80, 419-427 (1995). Binding was measured using a BiaCore 2000 surface plasmon resonance device. The BC2 antibody was coupled directly to the chip using the NHS/EDC reaction. Binding was measured by 2 min of contact time at 20 uL/min with 200 nM of each of the given constructs in 25 mM MOPS, pH 7.4, 0.15 M NaCl, 5 mM CaCl2. Dissociation was monitored for 3 min using the same buffer with no protein. No binding was detected to the wild type construct in the presence of 50 mM EDTA.

For the next assay, the target named is T2, Plasma VII (UniProt P08709 61-466).
T2 construct: also called Factor VII
T2 sequence (looked up): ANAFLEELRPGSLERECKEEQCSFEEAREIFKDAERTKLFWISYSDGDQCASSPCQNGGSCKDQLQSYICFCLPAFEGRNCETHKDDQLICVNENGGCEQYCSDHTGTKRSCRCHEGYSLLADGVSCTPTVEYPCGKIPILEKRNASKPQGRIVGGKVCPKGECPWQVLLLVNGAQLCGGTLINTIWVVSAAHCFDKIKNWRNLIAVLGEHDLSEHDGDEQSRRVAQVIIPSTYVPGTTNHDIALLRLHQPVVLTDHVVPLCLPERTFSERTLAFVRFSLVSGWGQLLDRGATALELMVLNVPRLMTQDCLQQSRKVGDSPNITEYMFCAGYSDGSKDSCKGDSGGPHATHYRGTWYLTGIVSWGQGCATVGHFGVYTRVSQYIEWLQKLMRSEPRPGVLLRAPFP
The experiment in a line: SPR (BiaCore 2000), BC2 coupled to the chip, construct injected, 5 mM CaCl2. Here is the method: as §3

Another assay concerns the target T3, VII-A/IX (UniProt P08709 61-105; P00740 93-461, limits assumed).
T3 construct: The make-up is read from the label by analogy with IX-A/VII
Described as above. The procedure:
as §3

T1 sequence (P00740 47-461 limits assumed): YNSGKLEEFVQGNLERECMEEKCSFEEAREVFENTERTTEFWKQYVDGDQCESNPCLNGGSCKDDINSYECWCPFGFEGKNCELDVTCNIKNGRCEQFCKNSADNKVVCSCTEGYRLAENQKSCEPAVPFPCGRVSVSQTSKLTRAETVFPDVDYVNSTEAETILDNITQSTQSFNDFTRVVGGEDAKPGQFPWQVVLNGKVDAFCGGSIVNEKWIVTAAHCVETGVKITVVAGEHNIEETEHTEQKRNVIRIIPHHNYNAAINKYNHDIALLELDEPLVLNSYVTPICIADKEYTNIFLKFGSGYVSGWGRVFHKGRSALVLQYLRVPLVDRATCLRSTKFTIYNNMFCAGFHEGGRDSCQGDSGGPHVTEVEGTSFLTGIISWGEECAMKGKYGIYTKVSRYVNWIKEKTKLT
Chain of human Factor IX (P00740 47-461 limits assumed): as above
Chain of IX K5A (Factor IX having a lysine to alanine substitution at residue 5) (P00740 47-461 K51A): as the sequence (P00740 47-461 limits assumed) above, with K5A counted along it

B1: humanized anti-human Factor IX monoclonal antibody SB 249417 (antibody, V domains shown)
VH: QVQLVQSGSELKKPGASVKVSCKASGYTFTNYGMNWVRQAPGQGLKWMGWINTRNGKSTYVDDFKGRFVFSLDSSVSTAYLQISSLKADDTAVYYCTREGNMDGYFPFTYWGQGTLVTVSS
VL: QIVLTQSPSSLSASVGDRVTITCRASSSVNYMHWYQQKPGKAPKPWIYATSNLASGVPSRFSGSGSGTDYTFTISSLQPEDIATYYCQQWSINPRTFGQGTKVEIKR
notes: also called F9HZHC 1-1 / F9HZLC 2-0
Turning to B1, the Kd in assay [1] is 2 nM; in assay [4] it was 4 nM; in assay [5], 1.9 nM; in [6], 12 nM; in [8], 4 nM. In addition, the koff in assay [1] is 0.0004 s⁻¹; in assay [9], 0.00041 s⁻¹. Besides, the kon in assay [1] and in assay [9] was 200000 M⁻¹ s⁻¹ each time. Further, the “Molar Binding Ratio FIX/mAb” value in [2] amounted to 1.5 FIX/mAb. For the same molecule, the “Stoichiometry of Factor IX Binding” value in [3] is 1.5 moles Factor IX : 1 mole mAb. Moreover, the “molar binding ratio at the equivalence point” value in assay [7] was about 2 FIX per mAb.

B2: humanized anti-human Factor IX monoclonal antibody SB 249415 (antibody, human IgG1, V domains shown)
VH: B1 VH
VL: EIVLTQSPATLSLSPGERATLSCRASSSVNYMHWYQQRPGQAPKPWIYATSNLASGVPARFSGSGSGTDFTLTISSLEPEDFAVYYCQQWSINPRTFGGGTKVEIKR
notes: Human IgG1 and kappa constant regions from the vectors; also called F9HZHC 1-1 / F9HZLC 1-1
B2: the “Molar Binding Ratio FIX/mAb” value in assay [2] came to 1.7 FIX/mAb. In addition, the dissociation constant (Kd) in [5] was 1.1 to 2.3 nM; in [6] it was 7 nM; in assay [8], 3 nM. Moreover, in assay [10], the koff stood at 0.00018 s⁻¹. Moreover, the kon in assay [10] was found to be 750000 M⁻¹ s⁻¹.

B3: humanized anti-human Factor IX monoclonal antibody SB 257731 (antibody, human IgG1, V domains shown)
VH: B1 VH
VL: QIVLTQSPATLSLSPGERATLSCRASSSVNYMHWYQQRPGQAPKPWIYATSNLASGVPARFSGSGSGTDYTLTISSLEPEDFAVYYCQQWSINPRTFGGGTKVEIK
notes: Human IgG1 and kappa constant regions from the vectors; also called F9HZHC 1-1 / F9HZLC 1-3
With B3, the dissociation constant (Kd) in assay [5] is 1.1 nM. In assay [10], the koff came out at 0.00099 s⁻¹ and the on-rate (kon) was 920000 M⁻¹ s⁻¹.

B4: humanized anti-human Factor IX monoclonal antibody SB 257732 (antibody, human IgG1, V domains shown)
VH: B1 VH with V2I, K46E, S74T, D89E, Y95F
VL: B1 VL with F72L, I82F, Q99G, V103L
notes: Human IgG1 and kappa constant regions from the vectors; also called F9HZHC 3-0 / F9HZLC 3-0
Take B4: the “Molar Binding Ratio FIX/mAb” value in assay [2] turned out to be 1.8 FIX/mAb. Besides, the figures for the dissociation constant (Kd) in assay [5], in assay [6] and in [8] were 1.5 nM, 9 nM and 4 nM, respectively. For the same molecule, the dissociation rate constant (koff) in [10] was 0.0012 s⁻¹. Also, the on-rate (kon) in assay [10] turned out to be 1.1e+06 M⁻¹ s⁻¹.

B5: humanized anti-human Factor IX monoclonal antibody SB 249413 (antibody, human IgG1, V domains shown)
VH: B1 VH with K46E, S74T, T97A
VL: B2 VL with K44R, P45L, W46L, V57I
notes: also called F9HZHC 1-0 / F9HZLC 1-0
B5: in assay [2], the “Molar Binding Ratio FIX/mAb” value stood at 1.9 FIX/mAb. Further, the dissociation constant Kd was 3.7 to 5.1 nM in assay [5], 12 nM in assay [6] and 6 nM in assay [8]. Further, the koff in assay [10] stood at 0.0028 s⁻¹. In addition, the kon in [10] came to 650000 M⁻¹ s⁻¹.

B6: humanized anti-human Factor IX monoclonal antibody SB 249416 (antibody, human IgG1, V domains shown)
VH: B1 VH
VL: B2 VL with F70Y
notes: Human IgG1 and kappa constant regions from the vectors; also called F9HZHC 1-1 / F9HZLC 1-2
As for B6, in assay [5], the Kd is 0.8 nM. Also, in [10], the koff stood at 0.00041 s⁻¹ and the association rate constant (kon) is 520000 M⁻¹ s⁻¹.

B7: murine anti-Factor IX monoclonal antibody BC2 (antibody, mouse IgG2a, V domains shown)
VH: QIQLVQSGPELKKPGETVKISCKASGYTFTNYGMNWVKQAPGKGLKWMGWINTRNGKSTYVDDFKGRFAFSLESSASTANLQIDNLKDEDTATYFCTREGNMDGYFPFTYWGQGTLVTVSA
VL: QIVLSQSPAILSASPGEKVTMTCRASSSVNYMHWYQQKPGSSPKPWIYATSNLASGVPARFSGSGSGTSYSLTISRVEAEDAATYYCQQWSINPRTFGGGTKLEIKR
notes: also called BC2 mAb; BC2 Antibody
Regarding B7, in assay [2], the “Molar Binding Ratio FIX/mAb” value stood at 1.4 FIX/mAb. In addition, the “IC50, nM (aPTT clotting time of human plasma)” value with human Factor IX is about 50 nM. In addition, the values for the Kd in [5], in [6] and in assay [8] were 1.9 nM, 20 nM and 10 nM, respectively. Moreover, the binding result is on record as “binds” in assay [11], “no binding (tested: 200 nM)” in the assay with Plasma VII and “no binding (tested: 200 nM)” with VII-A/IX. Also, the koff in [10] amounted to 0.00091 s⁻¹. In addition, in assay [10], the on-rate (kon) turned out to be 480000 M⁻¹ s⁻¹.

B8: mouse-human chimeric anti-Factor IX monoclonal antibody chαFIX (antibody, V domains shown)
VH: B7 VH
VL: QIVLSQSPAILSASPGEKVTMTCRASSSVNYMHWYQQKPGSSPKPWIYATSNLASGVPARFSGSGSGTSYSLTISRVEAEDAATYYCQQWSINPRTFGGGTKLEIK
notes: BC2 variable regions with human constant regions; also called Chf9; F9CHHC / F9CHLC
B8: the Kd in [5] is 1.3 nM. Moreover, in assay [10], the koff was 0.0003 s⁻¹ and the on-rate (kon) turned out to be 240000 M⁻¹ s⁻¹.
